The nature of the series: ADC in vivo stability assay in mice (serum ELISA for ADC and total antibody). Set-up: species or system Balb/c mice. Particulars: 10 mg/kg via the tail vein. The method, then: • 1. The antibody-drug conjugate was injected into Balb/c mice (Vital River) via the tail vein at a dose of 10 mg/kg, and blood was collected at 0.083 h, 0.5 h, 2 h, 6 h, 24 h, 48 h, 96 h, 168 h, 336 h, and 504 h after administration (FIG. 10A). The blood samples were left to stand at room temperature and centrifuged to collect serum, so as to test the stability of the drug in the mice. • 2. Antibody detection: TROP2 protein (ACRO, cat: TR2-H5223, lot: 2573-2316F1-1B9) was coated and incubated overnight at 4 °C (FIG. 10A). The coating protein solution was removed, and 300 µL of wash buffer (0.05% Tween 20) was added to each well for repeated washing 3 times. 200 µL of blocking solution (5% skim milk powder) was added to each well, and the plate was blocked at room temperature for 2 h. The blocking solution was discarded, and the plate was washed 3 times with 300 µL of wash buffer per well. The diluted standards, quality control samples, and mouse serum samples to be tested were added to the well plate and incubated at room temperature for 2 h. The sample solution was discarded, and 300 µL of wash buffer was added to each well for 3 times of repeated washing. Anti-hFc-HRP (BETHYL, cat:A80-104P, lot: 97) was diluted 20000-fold and added at 100 µL/well, and the plate was incubated at room temperature for 1 h. The liquid was removed, and 300 µL of wash buffer was added to each well for 6 times of repeated washing. 100 µL of TMB substrate (Solarbio, cat:PR1200, lot: 20230418) was added to each well, and the color development was performed at room temperature for 5-10 min in the dark. 50 µL of ELISA stop solution (Beijing Solarbio C1058 20190620) was added to each well, medium-speed shaking for 10 s, within 30 min, the OD values at 450 nm and 620 nm were read on a microplate reader (USA, Thermo Multiskan FC AS-A1-008). • 3. Antibody-drug conjugate ADC detection: an anti-payload antibody 18E7C9 (innovent, lot: 20220424) was coated and incubated at 4 °C overnight (FIG. 10A). The coating protein solution was discarded, and 300 µL of wash buffer (0.05% Tween 20) was added to each well for 3 repeated washes. 200 µL of blocking solution (5% skim milk powder) was added to each well, and the plate was blocked at room temperature for 2 h. The blocking solution was discarded, and the plate was washed 3 times with 300 µL of wash buffer per well. The diluted standards, quality control samples, and mouse serum samples to be tested were added to the well plate and incubated at room temperature for 2 h. The sample solution was discarded, and 300 µL of wash buffer was added to each well for 3 times of repeated washing. Biotinylated TROP2 protein (ACRO, cat: TR2-H82E5, lot:BV3055-91PF1-ZC) was added to the microplate and incubated at room temperature for 2 h. The liquid was removed, and 300 µL of wash buffer was added to each well for 3 times of repeated washing. SA-HRP (Biolegend, cat:405210, lot: B339457) was diluted 20,000-fold and added at 100 µL/well, and the plate was incubated at room temperature for 1 h. The liquid was removed, and 300 µL of wash buffer was added to each well for 6 times of repeated washing. 100 µL of TMB substrate (Solarbio, cat:PR1200, lot: 20230418) was added to each well, and the color development was performed at room temperature for 5-10 min in the dark. 50 µL of ELISA stop solution (Beijing Solarbio C1058 20190620) was added to each well, medium-speed shaking for 10 s, within 30 min, the OD values at 450 nm and 620 nm were read on a microplate reader (USA, Thermo Multiskan FC AS-A1-008).
(An ELISA detects its analyte on a solid surface through an enzyme-linked reagent.)

B1: hTINA1-DXd: control ADC: antibody hTINA1 conjugated with Linker-DXd, average DAR 4.3; TROP2-ADC from Daiichi Sankyo (conjugate, chains of the INN, looked up)
VH: QVQLVQSGAEVKKPGASVKVSCKASGYTFTTAGMQWVRQAPGQGLEWMGWINTHSGVPKYAEDFKGRVTISADTSTSTAYLQLSSLKSEDTAVYYCARSGFGSSYWYFDVWGQGTLVTVSS
VL: DIQMTQSPSSLSASVGDRVTITCKASQDVSTAVAWYQQKPGKAPKLLIYSASYRYTGVPSRFSGSGSGTDFTLTISSLQPEDFAVYYCQQHYITPLTFGQGTKLEIK
modifications: deruxtecan (Linker-DXd), DAR 4.3
notes: control ADC: antibody hTINA1 conjugated with Linker-DXd, average DAR 4.3; TROP2-ADC from Daiichi Sankyo
Where the note is “Analysis Type ADC”, B1 returned an AUC of 12053.60 µg·h/mL, a Cl_obs of 19.9 mL/day/kg and a T-half of 154.59 h. For the setting “Analysis Type Total-Ab”, the AUC was found to be 35805.22 µg·h/mL, the Cl_obs turned out to be 6.72 mL/day/kg and the T-half is 374.37 h.

The AUC is concentration integrated over time. A lower AUC goes with less exposure.
